Assay results reported in patent publication US20160209425A1, “USE OF DECTIN-1 ACTIVATORS FOR TREATMENT OF LIVER DISORDERS” (NEW YORK UNIVERSITY, priority 2015, published 2016).
“Also recorded” adds a separate entry of the source.

Legend:
[1] = test system: HSC; experiment: LPS-stimulated hepatic stellate cells in vitro; assay type: cell-based, mouse; settings: LPS-stimulated Dectin-1−/− HSC, 24 h; FIG. 14D
Description: Murine hepatic NPC were collected as previously (Connolly et al., 2009, The Journal of clinical investigation 119, 3213-3225). Briefly, the portal vein was cannulated and infused with 1% Collagenase IV (Sigma). The liver was then removed, minced, and filtered to obtain single cell suspensions. Hepatocytes were excluded with serial low speed (400 RPM) centrifugation followed by high speed (2000 RPM) centrifugation to isolate the NPC, which were then further enriched over a 40% Optiprep (Sigma) gradient. […] In vitro proliferation was measured using the XTT cell proliferation kit (Roche). PKC activity was measured using a PKC Kinase Activity Assay Kit (Abcam). […]
For Western blotting, total protein was isolated from 75 mg liver tissue by homogenization in RIPA buffer with Complete Protease Inhibitor cocktail (Roche). […] The presence of the co-immunoprecipitated proteins were determined by western blotting.

[2] = test system: liver regeneration; experiment: 70% partial hepatectomy, liver regeneration; assay type: in vivo, mouse; settings: TCRδ−/− mice, 36 h, FIG. 29C
Source text: C57BL/6, TCRδ^−/−, and C57BL/6-Trdc^tm1Mal mice were purchased from Jackson (Bar Harbor, Me.). For selected experiments, CD45.1 mice and C57BL/6 controls were purchased from Taconic (Germantown, N.Y.). Dectin-1^−/− mice were a gift from Gordon Brown (University of Aberdeen). Bone marrow chimeric animals were created by irradiating mice (9 Gy) followed by i.v. bone marrow transfer (10^7 cells) as described by us (Ochi et al., The Journal of clinical investigation 2012; 122:4118-29). The 70% partial hepatectomy procedure entailed ligation and removal of the left and median lobes of the liver in 8-12 week-old mice (Mitchell et al., Nat Protoc 2008; 3:1167-70). The sham operation consisted of a midline laparotomy alone. All animal procedures were approved by NYU School of Medicine IACUC.
In selected experiments, NK1.1^+ cells were depleted using an mAb (PK136, 150 μg, eBiosciences, San Diego, Calif.). […]
Liver tissues were fixed in formaldehyde, embedded in paraffin, and stained for B220 (RA3-6B2; BD), BrdU (Bu20a; Sigma), CCL20 (polyclonal, Abcam), CD45 (30-F11; BD), CD68 (KP1; Abcam), Ki67 (16A8; Biolegend), MPO (Rabbit polyclonal; LS Biosciences, Seattle, Wash.), PCNA (PC10; Biolegend). […] Data was quantified by examining 10 high-power fields (HPFs) per slide. […]

[3] = test system: LPS-induced endotoxemia; experiment: LPS-induced endotoxemia / sepsis in mice; assay type: in vivo, mouse; settings: WT mice co-administered LPS and M-CSF; FIGS. 7G, 7H
Description: C57BL/6 and CD45.1 mice were purchased from Jackson and bred in house. Dectin-1^−/− mice were a gift from Gordon Brown (University of Aberdeen). Mincle^−/− mice were obtained from the MMRRC. Age-matched 6-8 week old mice were used in all experiments. To induce hepatic fibrosis, female mice were treated with thrice weekly injections of TAA (250 mg/kg; Sigma) for 12 weeks as described (Connolly et al., 2009, The Journal of clinical investigation 119, 3213-3225). Alternatively, mice received bi-weekly injections of CCl4 (0.5 ml/kg; Sigma) for the same duration. To induce HCC, male mice were injected i.p. at 2 weeks of age with a single dose of DEN (15 mg/kg, Sigma) followed by bi-weekly injections of CCl4 (0.2 ml/kg) starting at 8 weeks of age ((Dapito et al., 2012, Cancer cell 21, 504-516). Mice were sacrificed 24 weeks later. To induce sepsis, male mice were injected i.p. with a single dose of LPS (15 mg/kg; Sigma). Rectal core body temperature was determined using a MicroTherma 2 temperature probe (Thermoworks). In selected experiments, MyD88 inhibitory peptide (1 mg/kg; Novus), an α-M-CSF neutralizing antibody (2 mg/kg; Clone 5A1, BioXCell), or an α-CD14 neutralizing antibody (4 mg/kg; Clone 4C1, BD Bioscience) was administered immediately preceding each TAA or LPS administration. At the time of sacrifice, blood and liver samples were harvested for analysis. […]

[4] = test system: macrophages; experiment: Macrophages treated in vitro (M-CSF, M-CSF blockade, TNF-a blockade), CD14 and cytokine expression; assay type: cell-based, mouse
Description: Murine hepatic NPC were collected as previously (Connolly et al., 2009, The Journal of clinical investigation 119, 3213-3225). Briefly, the portal vein was cannulated and infused with 1% Collagenase IV (Sigma). The liver was then removed, minced, and filtered to obtain single cell suspensions. Hepatocytes were excluded with serial low speed (400 RPM) centrifugation followed by high speed (2000 RPM) centrifugation to isolate the NPC, which were then further enriched over a 40% Optiprep (Sigma) gradient. Human liver NPCs were isolated using a similar protocol as we have described ((Ibrahim et al., 2012, Gastroenterology 143, 1061-1072). Human PBMC were isolated by overlaying whole blood diluted 1:1 in PBS over an equal amount of Ficoll. The cells were then spun at 2100 RPM for 21 min at 20° C. and buffy coat harvested to obtain the PBMC as described ((Rehman et al., 2013, Journal of immunology 190, 4640-4649). Single-cell suspensions of murine splenocytes were isolated by manual disruption of whole spleen and RBC lysis. For HSC isolation, the liver was perfused with 1% Collagenase IV and HSCs were enriched over a 2-layer Nicodenz (Sigma) gradient. HSC were used for experiments on day 14 of culture. […] In vitro proliferation was measured using the XTT cell proliferation kit (Roche). PKC activity was measured using a PKC Kinase Activity Assay Kit (Abcam). […]

CN(C)CCCn1cc(C2=C(c3c[nH]c4ccccc34)C(=O)NC2=O)c2ccccc21 [PKC inhibition, GF109203X]
M-CSF expression in cell culture supernatant [1]: abrogated the higher M-CSF expression

B1: recombinant mIL-22: recombinant IL-22 (R&D) (protein, UniProt Q9JJY9 34-179, looked up)
Interleukin-22: LPVNTRCKLEVSNFQQPYIVNRTFMLAKEASLADNNTDVRLIGEKLFRGVSAKDQCYLMKQVLNFTLEDVLLPQSDRFQPYMQEVVPFLTKLSNQLSSCHISGDDQNIQKNVRRLKETVKKLGESGEIKAIGELDLLFMSLRNACV
rate of hepatic regeneration (BrdU incorporation) [2]: rescued | rate of hepatic regeneration (BrdU incorporation) ([2]; listed as recombinant IL-22): impressively restored; also recorded: rescues

B2: recombinant M-CSF: recombinant murine M-CSF (R&D) (protein, UniProt P07141 33-552, looked up)
Macrophage colony-stimulating …: KEVSEHCSHMIGNGHLKVLQQLIDSQMETSCQIAFEFVDQEQLDDPVCYLKKAFFLVQDIIDETMRFKDNTPNANATERLQELSNNLNSCFTKDYEEQNKACVRTFHETPLQLLEKIKNFFNETKNLLEKDWNIFTKNCNNSFAKCSSRDVVTKPDCNCLYPKATPSSDPASASPHQPPAPSMAPLAGLAWDDSQRTEGSSLLPSELPLRIEDPGSAKQRPPRSTCQTLESTEQPNHGDRLTEDSQPHPSAGGPVPGVEDILESSLGTNWVLEEASGEASEGFLTQEAKFSPSTPVGGSIQAETDRPRALSASPFPKSTEDQKPVDITDRPLTEVNPMRPIGQTQNNTPEKTDGTSTLREDHQEPGSPHIATPNPQRVSNSATPVAQLLLPKSHSWGIVLPLGELEGKRSTRDRRSPAELEGGSASEGAARPVARFNSIPLTDTGHVEQHEGSSDPQIPESVFHLLVPGIILVLLTVGGLLFYKWKWRSHRDPQTLDSSVGRPEDSSLTQDEDRQVELPV
LPS-mediated sepsis (serum IL-6, core body temperature) [3]: exacerbated | MCP-1 and TNF-a expression ([4]; macrophages in vitro, cell-culture supernatant, FIG. 7F): upregulated | CD14 expression ([4]; macrophages treated with recombinant M-CSF, FIG. 7E): increased
